Measured values reported in doi:10.1101/2020.10.11.334888 (bioRxiv, 2020).

B1: FliF(L253A), overexpressed in E. coli (natural protein)
chain: MSATASTATQPKPLEWLNRLRANPRIPLIVAGSAAVAIVVAMVLWAKTPDYRTLFSNLSDQDGGAIVAQLTQMNIPYRFANGSGAIEVPADKVHELRLRLAQQGLPKGGAVGFELLDQEKFGISQFSEQVNYQRALEGELARTIETLGPVKSARVHLAMPKPSLFVREQKSPSASVTVTLEPGRALDEGQISAVVHLVSSAVAGLPPGNVTLVDQSGHLLTQSNTSGRDLNDAQLKFANDVESRIQRRIEAIASPIVGNGNVHAQVTAQLDFANKEQTEEHYSPNGDASKATLRSRQLNISEQVGAGYPGGVPGALSNQPAPPNEAPIATPPTNQQNAQNTPQTSTSTNSNSAGPRSTQRNETSNYEVDRTIRHTKMNVGDIERLSVAVVVNYKTLADGKPLPLTADQMKQIEDLTREAMGFSDKRGDTLNVVNSPFSAVDNTGGELPFWQQQSFIDQLLAAGRWLLVLVVAWILWRKAVRPQLTRRVEEAKAAQEQAQVRQETEEAVEVRLSKDEQLQQRRANQRLGAEVMSQRIREMSDNDPRVVALVIRQWMSNDHE
B2: FliF(I252A), overexpressed in E. coli (natural protein)
chain: MSATASTATQPKPLEWLNRLRANPRIPLIVAGSAAVAIVVAMVLWAKTPDYRTLFSNLSDQDGGAIVAQLTQMNIPYRFANGSGAIEVPADKVHELRLRLAQQGLPKGGAVGFELLDQEKFGISQFSEQVNYQRALEGELARTIETLGPVKSARVHLAMPKPSLFVREQKSPSASVTVTLEPGRALDEGQISAVVHLVSSAVAGLPPGNVTLVDQSGHLLTQSNTSGRDLNDAQLKFANDVESRIQRRIEAALSPIVGNGNVHAQVTAQLDFANKEQTEEHYSPNGDASKATLRSRQLNISEQVGAGYPGGVPGALSNQPAPPNEAPIATPPTNQQNAQNTPQTSTSTNSNSAGPRSTQRNETSNYEVDRTIRHTKMNVGDIERLSVAVVVNYKTLADGKPLPLTADQMKQIEDLTREAMGFSDKRGDTLNVVNSPFSAVDNTGGELPFWQQQSFIDQLLAAGRWLLVLVVAWILWRKAVRPQLTRRVEEAKAAQEQAQVRQETEEAVEVRLSKDEQLQQRRANQRLGAEVMSQRIREMSDNDPRVVALVIRQWMSNDHE
B3: FliF(V266R), overexpressed in E. coli (natural protein)
chain: MSATASTATQPKPLEWLNRLRANPRIPLIVAGSAAVAIVVAMVLWAKTPDYRTLFSNLSDQDGGAIVAQLTQMNIPYRFANGSGAIEVPADKVHELRLRLAQQGLPKGGAVGFELLDQEKFGISQFSEQVNYQRALEGELARTIETLGPVKSARVHLAMPKPSLFVREQKSPSASVTVTLEPGRALDEGQISAVVHLVSSAVAGLPPGNVTLVDQSGHLLTQSNTSGRDLNDAQLKFANDVESRIQRRIEAILSPIVGNGNVHAQRTAQLDFANKEQTEEHYSPNGDASKATLRSRQLNISEQVGAGYPGGVPGALSNQPAPPNEAPIATPPTNQQNAQNTPQTSTSTNSNSAGPRSTQRNETSNYEVDRTIRHTKMNVGDIERLSVAVVVNYKTLADGKPLPLTADQMKQIEDLTREAMGFSDKRGDTLNVVNSPFSAVDNTGGELPFWQQQSFIDQLLAAGRWLLVLVVAWILWRKAVRPQLTRRVEEAKAAQEQAQVRQETEEAVEVRLSKDEQLQQRRANQRLGAEVMSQRIREMSDNDPRVVALVIRQWMSNDHE
B4: FliF(I252R), overexpressed in E. coli (natural protein)
chain: MSATASTATQPKPLEWLNRLRANPRIPLIVAGSAAVAIVVAMVLWAKTPDYRTLFSNLSDQDGGAIVAQLTQMNIPYRFANGSGAIEVPADKVHELRLRLAQQGLPKGGAVGFELLDQEKFGISQFSEQVNYQRALEGELARTIETLGPVKSARVHLAMPKPSLFVREQKSPSASVTVTLEPGRALDEGQISAVVHLVSSAVAGLPPGNVTLVDQSGHLLTQSNTSGRDLNDAQLKFANDVESRIQRRIEARLSPIVGNGNVHAQVTAQLDFANKEQTEEHYSPNGDASKATLRSRQLNISEQVGAGYPGGVPGALSNQPAPPNEAPIATPPTNQQNAQNTPQTSTSTNSNSAGPRSTQRNETSNYEVDRTIRHTKMNVGDIERLSVAVVVNYKTLADGKPLPLTADQMKQIEDLTREAMGFSDKRGDTLNVVNSPFSAVDNTGGELPFWQQQSFIDQLLAAGRWLLVLVVAWILWRKAVRPQLTRRVEEAKAAQEQAQVRQETEEAVEVRLSKDEQLQQRRANQRLGAEVMSQRIREMSDNDPRVVALVIRQWMSNDHE
B5: FliF(L253R), overexpressed in E. coli (natural protein)
chain: MSATASTATQPKPLEWLNRLRANPRIPLIVAGSAAVAIVVAMVLWAKTPDYRTLFSNLSDQDGGAIVAQLTQMNIPYRFANGSGAIEVPADKVHELRLRLAQQGLPKGGAVGFELLDQEKFGISQFSEQVNYQRALEGELARTIETLGPVKSARVHLAMPKPSLFVREQKSPSASVTVTLEPGRALDEGQISAVVHLVSSAVAGLPPGNVTLVDQSGHLLTQSNTSGRDLNDAQLKFANDVESRIQRRIEAIRSPIVGNGNVHAQVTAQLDFANKEQTEEHYSPNGDASKATLRSRQLNISEQVGAGYPGGVPGALSNQPAPPNEAPIATPPTNQQNAQNTPQTSTSTNSNSAGPRSTQRNETSNYEVDRTIRHTKMNVGDIERLSVAVVVNYKTLADGKPLPLTADQMKQIEDLTREAMGFSDKRGDTLNVVNSPFSAVDNTGGELPFWQQQSFIDQLLAAGRWLLVLVVAWILWRKAVRPQLTRRVEEAKAAQEQAQVRQETEEAVEVRLSKDEQLQQRRANQRLGAEVMSQRIREMSDNDPRVVALVIRQWMSNDHE
B6: FliF(V266A), overexpressed in E. coli (natural protein)
chain: MSATASTATQPKPLEWLNRLRANPRIPLIVAGSAAVAIVVAMVLWAKTPDYRTLFSNLSDQDGGAIVAQLTQMNIPYRFANGSGAIEVPADKVHELRLRLAQQGLPKGGAVGFELLDQEKFGISQFSEQVNYQRALEGELARTIETLGPVKSARVHLAMPKPSLFVREQKSPSASVTVTLEPGRALDEGQISAVVHLVSSAVAGLPPGNVTLVDQSGHLLTQSNTSGRDLNDAQLKFANDVESRIQRRIEAILSPIVGNGNVHAQATAQLDFANKEQTEEHYSPNGDASKATLRSRQLNISEQVGAGYPGGVPGALSNQPAPPNEAPIATPPTNQQNAQNTPQTSTSTNSNSAGPRSTQRNETSNYEVDRTIRHTKMNVGDIERLSVAVVVNYKTLADGKPLPLTADQMKQIEDLTREAMGFSDKRGDTLNVVNSPFSAVDNTGGELPFWQQQSFIDQLLAAGRWLLVLVVAWILWRKAVRPQLTRRVEEAKAAQEQAQVRQETEEAVEVRLSKDEQLQQRRANQRLGAEVMSQRIREMSDNDPRVVALVIRQWMSNDHE
B7: FliF(L253A) expressed from pMMiF004 in Salmonella TH12415 (ΔfliF) (natural protein)
chain: MSATASTATQPKPLEWLNRLRANPRIPLIVAGSAAVAIVVAMVLWAKTPDYRTLFSNLSDQDGGAIVAQLTQMNIPYRFANGSGAIEVPADKVHELRLRLAQQGLPKGGAVGFELLDQEKFGISQFSEQVNYQRALEGELARTIETLGPVKSARVHLAMPKPSLFVREQKSPSASVTVTLEPGRALDEGQISAVVHLVSSAVAGLPPGNVTLVDQSGHLLTQSNTSGRDLNDAQLKFANDVESRIQRRIEAIASPIVGNGNVHAQVTAQLDFANKEQTEEHYSPNGDASKATLRSRQLNISEQVGAGYPGGVPGALSNQPAPPNEAPIATPPTNQQNAQNTPQTSTSTNSNSAGPRSTQRNETSNYEVDRTIRHTKMNVGDIERLSVAVVVNYKTLADGKPLPLTADQMKQIEDLTREAMGFSDKRGDTLNVVNSPFSAVDNTGGELPFWQQQSFIDQLLAAGRWLLVLVVAWILWRKAVRPQLTRRVEEAKAAQEQAQVRQETEEAVEVRLSKDEQLQQRRANQRLGAEVMSQRIREMSDNDPRVVALVIRQWMSNDHE
B8: FliF(I252A) expressed from pMMiF002 in Salmonella TH12415 (ΔfliF) (natural protein)
chain: MSATASTATQPKPLEWLNRLRANPRIPLIVAGSAAVAIVVAMVLWAKTPDYRTLFSNLSDQDGGAIVAQLTQMNIPYRFANGSGAIEVPADKVHELRLRLAQQGLPKGGAVGFELLDQEKFGISQFSEQVNYQRALEGELARTIETLGPVKSARVHLAMPKPSLFVREQKSPSASVTVTLEPGRALDEGQISAVVHLVSSAVAGLPPGNVTLVDQSGHLLTQSNTSGRDLNDAQLKFANDVESRIQRRIEAALSPIVGNGNVHAQVTAQLDFANKEQTEEHYSPNGDASKATLRSRQLNISEQVGAGYPGGVPGALSNQPAPPNEAPIATPPTNQQNAQNTPQTSTSTNSNSAGPRSTQRNETSNYEVDRTIRHTKMNVGDIERLSVAVVVNYKTLADGKPLPLTADQMKQIEDLTREAMGFSDKRGDTLNVVNSPFSAVDNTGGELPFWQQQSFIDQLLAAGRWLLVLVVAWILWRKAVRPQLTRRVEEAKAAQEQAQVRQETEEAVEVRLSKDEQLQQRRANQRLGAEVMSQRIREMSDNDPRVVALVIRQWMSNDHE
B9: full-length Salmonella FliF (MS ring), overexpressed from pKOT105 (data set 2) (natural protein)
chain: MSATASTATQPKPLEWLNRLRANPRIPLIVAGSAAVAIVVAMVLWAKTPDYRTLFSNLSDQDGGAIVAQLTQMNIPYRFANGSGAIEVPADKVHELRLRLAQQGLPKGGAVGFELLDQEKFGISQFSEQVNYQRALEGELARTIETLGPVKSARVHLAMPKPSLFVREQKSPSASVTVTLEPGRALDEGQISAVVHLVSSAVAGLPPGNVTLVDQSGHLLTQSNTSGRDLNDAQLKFANDVESRIQRRIEAILSPIVGNGNVHAQVTAQLDFANKEQTEEHYSPNGDASKATLRSRQLNISEQVGAGYPGGVPGALSNQPAPPNEAPIATPPTNQQNAQNTPQTSTSTNSNSAGPRSTQRNETSNYEVDRTIRHTKMNVGDIERLSVAVVVNYKTLADGKPLPLTADQMKQIEDLTREAMGFSDKRGDTLNVVNSPFSAVDNTGGELPFWQQQSFIDQLLAAGRWLLVLVVAWILWRKAVRPQLTRRVEEAKAAQEQAQVRQETEEAVEVRLSKDEQLQQRRANQRLGAEVMSQRIREMSDNDPRVVALVIRQWMSNDHE
B10: full-length Salmonella FliF (MS ring), overexpressed from pKOT112 (data set 1) (natural protein)
chain: MSATASTATQPKPLEWLNRLRANPRIPLIVAGSAAVAIVVAMVLWAKTPDYRTLFSNLSDQDGGAIVAQLTQMNIPYRFANGSGAIEVPADKVHELRLRLAQQGLPKGGAVGFELLDQEKFGISQFSEQVNYQRALEGELARTIETLGPVKSARVHLAMPKPSLFVREQKSPSASVTVTLEPGRALDEGQISAVVHLVSSAVAGLPPGNVTLVDQSGHLLTQSNTSGRDLNDAQLKFANDVESRIQRRIEAILSPIVGNGNVHAQVTAQLDFANKEQTEEHYSPNGDASKATLRSRQLNISEQVGAGYPGGVPGALSNQPAPPNEAPIATPPTNQQNAQNTPQTSTSTNSNSAGPRSTQRNETSNYEVDRTIRHTKMNVGDIERLSVAVVVNYKTLADGKPLPLTADQMKQIEDLTREAMGFSDKRGDTLNVVNSPFSAVDNTGGELPFWQQQSFIDQLLAAGRWLLVLVVAWILWRKAVRPQLTRRVEEAKAAQEQAQVRQETEEAVEVRLSKDEQLQQRRANQRLGAEVMSQRIREMSDNDPRVVALVIRQWMSNDHE

Target: the molecule itself
Assay: negative-stain EM
B1: binds. B2: binds. B3: binds. B4: binds. B5: binds. B6: binds.

Target: the molecule itself
Assay: electron microscopy of purified hook-basal bodies
B7: binds. B8: binds.

Target: the molecule itself
Assay: cryo-EM structure
B9 was tested, and the “stoichiometry N” value was 34. For B10, the “stoichiometry N” value was 34.
